Experimental data from US20220251186A1 (TAVOTEK BIOTHERAPEUTICS HONG KONG, published 2022).

Columns and labels:
[1] = molecular target: T1, recombinant mouse FcRn (R&D Systems) (mouse, UniProt Q61559 22-297; P01887 21-119, limits assumed); test: ELISA at pH 6.0, 1 µg/mL recombinant mouse FcRn coated, HRP anti-human detection
T1 sequence (looked up) 1: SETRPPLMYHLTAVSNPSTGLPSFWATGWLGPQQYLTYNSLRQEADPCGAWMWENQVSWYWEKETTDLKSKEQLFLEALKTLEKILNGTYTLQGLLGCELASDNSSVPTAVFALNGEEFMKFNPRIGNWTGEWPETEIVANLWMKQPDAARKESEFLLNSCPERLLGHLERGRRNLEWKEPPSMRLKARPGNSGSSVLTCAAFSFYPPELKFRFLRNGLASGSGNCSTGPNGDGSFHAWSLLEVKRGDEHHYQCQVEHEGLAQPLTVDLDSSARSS
T1 sequence (looked up) 2: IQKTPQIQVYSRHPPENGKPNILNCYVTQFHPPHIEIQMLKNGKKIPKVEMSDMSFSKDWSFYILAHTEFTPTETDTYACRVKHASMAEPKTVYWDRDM
Description: 1 μg/mL recombinant mouse FcRn (R&D Systems) were coated on ELISA plate.

Cynomolgus monkey TSLP = molecular target: T2, Cynomolgus monkey TSLP (Cynomolgus monkey, UniProt A0A7N9CAT7 29-159); test: ELISA, plate coated with cynomolgus monkey TSLP, antibody titrated, OD 450 nm
T2 construct: also called cynomolgus TSLP

[2] = molecular target: T3, recombinant human TSLP (R&D Systems) (human, UniProt Q969D9 29-159); test: ELISA, 1 µg/mL recombinant human TSLP coated, HRP anti-mouse detection
T3 construct: also called thymic stromal lymphopoietin

mouse TSLP (R&D Systems) = molecular target: T4, mouse TSLP (R&D Systems) (mouse, UniProt Q9JIE6 20-140); test: ELISA, plate coated with mouse TSLP, antibody titrated, HRP-conjugated anti-mouse secondary antibody, OD 450 nm
T4 sequence (looked up): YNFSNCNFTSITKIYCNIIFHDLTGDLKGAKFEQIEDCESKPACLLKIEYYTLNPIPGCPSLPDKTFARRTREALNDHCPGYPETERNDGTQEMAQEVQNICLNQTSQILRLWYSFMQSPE

[3] = molecular target: T3, recombinant human TSLP (R&D Systems); test: cell-based or functional assay
[4] = molecular target: T3, recombinant human TSLP (R&D Systems); test: ELISA, plate coated with 1 µg/mL recombinant human TSLP, antibody titrated, HRP-conjugated secondary antibody, OD 450 nm

B1: TAVO9765 (antibody, human IgG1, kappa, L234A L235A)
heavy: QVQLVQSGAEVKKPGSSVKVSCKASGYTFSSYWVNWVRQAPGQGLEWIGQIYPGDGDTDYAQKFQGRATLTADKSTSTAYMELSSLRSEDTAVYFCARGTYYNNYYGTDYWGQGTTVTVSSASTKGPSVFPLAPSSKSTSGGTAALGCLVKDYFPEPVTVSWNSGALTSGVHTFPAVLQSSGLYSLSSVVTVPSSSLGTQTYICNVNHKPSNTKVDKKVEPKSCDKTHTCPPCPAPEAAGGPSVFLFPPKPKDTLMISRTPEVTCVVVDVSHEDPEVKFNWYVDGVEVHNAKTKPREEQYNSTYRVVSVLTVLHQDWLNGKEYKCKVSNKALPAPIEKTISKAKGQPREPQVYTLPPSREEMTKNQVSLTCLVKGFYPSDIAVEWESNGQPENNYKTTPPVLDSDGSFFLYSKLTVDKSRWQQGNVFSCSVLHEALHSHYTQKSLSLSPGK
light: EIVLTQSPDFQSVTPKEKVTITCSVSSSISSSNLHWYQQKPDQSPKPWIYGTSNLASGVPSRFSGSGSGTDYTLTINSLEAEDAATYYCQQWSSYPLTFGQGTKLEIKRTVAAPSVFIFPPSDEQLKSGTASVVCLLNNFYPREAKVQWKVDNALQSGNSQESVTEQDSKDSTYSLSSTLTLSKADYEKHKVYACEVTHQGLSSPVTKSFNRGEC
notes: also called humanized TAVO202 antibody 202H2/202L4 with human IgG1 Fc (L234A, L235A, M428L, N434S)
fold better potency than TAVO7265 [1]: ~10 fold

B2: TAVO7265 (antibody, human IgG1, kappa)
heavy: QVQLVQSGAEVKKPGSSVKVSCKASGYTFSSYWVNWVRQAPGQGLEWIGQIYPGDGDTDYAQKFQGRATLTADKSTSTAYMELSSLRSEDTAVYFCARGTYYNNYYGTDYWGQGTTVTVSSASTKGPSVFPLAPSSKSTSGGTAALGCLVKDYFPEPVTVSWNSGALTSGVHTFPAVLQSSGLYSLSSVVTVPSSSLGTQTYICNVNHKPSNTKVDKKVEPKSCDKTHTCPPCPAPEFEGGPSVFLFPPKPKDTLMISRTPEVTCVVVAVSHEDPEVKFNWYVDGVEVHNAKTKPREEQYNSTYRVVSVLTVLHQDWLNGKEYKCKVSNKALPAPIEKTISKAKGQPREPQVYTLPPSREEMTKNQVSLTCLVKGFYPSDIAVEWESNGQPENNYKTTPPVLDSDGSFLLYSKLTVDKSRWQQGNVFSCSVMHEALHNHYTQKSLSLSPGK
light: EIVLTQSPDFQSVTPKEKVTITCSVSSSISSSNLHWYQQKPDQSPKPWIYGTSNLASGVPSRFSGSGSGTDYTLTINSLEAEDAATYYCQQWSSYPLTFGQGTKLEIKRTVAAPSVFIFPPSDEQLKSGTASVVCLLNNFYPREAKVQWKVDNALQSGNSQESVTEQDSKDSTYSLSSTLTLSKADYEKHKVYACEVTHQGLSSPVTKSFNRGEC
notes: also called humanized TAVO202 antibody 202H2/202L4 with human IgG1 Fc (L234F, L235E, D265A, F405L)
binding result (Cynomolgus monkey TSLP): no binding (tested: 1 µg/mL)

B3: mouse monoclonal anti-human TSLP antibody TAVO202 (antibody, V domains shown)
VH: QVQLQQSGAELVRPGSSVKISCKASGYTFSSYWVNWVKQRPGQGLEWIGQIYPGDGDTDYNGKFKGKATLTADKSSSTAYMQLSSLTSEDSAVYFCARGTYYNNYYGTDYWGQGTSVTVSS
VL: EIVLTQSPALMAASPGEKVTITCSVSSSISSSNLHWYQQKSETSPKPWIYGTSNLASGVPVRFSGSGSGTSYSLTISSMEAEDAATYYCQQWSSYPLTFGGGTKLEIK
notes: Mouse monoclonal antibody from hybridoma screening; also called mouse anti-TSLP antibody TAVO202
EC50 [2]: 2.4 ng/mL | binding result (mouse TSLP (R&D Systems)): no binding (tested: about 5 µg/mL) | IC50, neutralization of TSLP-driven STAT5 luciferase reporter gene expression (10 ng/mL human TSLP) [3]: 20 ng/mL | IC50, neutralization of TSLP-driven proliferation of transfected BAF3 cells (0.5 ng/mL human TSLP) [3]: 6.6 ng/mL

B4: TAVO6264 (antibody, human IgG2, kappa)
heavy: QVQLVQSGAEVKKPGSSVKVSCKASGYTFSSYWVNWVRQAPGQGLEWIGQIYPGDGDTDYAQKFQGRATLTADKSTSTAYMELSSLRSEDTAVYFCARGTYYNNYYGTDYWGQGTTVTVSSASTKGPSVFPLAPCSRSTSESTAALGCLVKDYFPEPVTVSWNSGALTSGVHTFPAVLQSSGLYSLSSVVTVPSSNFGTQTYTCNVDHKPSNTKVDKTVERKCCVECPPCPAPPVAGPSVFLFPPKPKDTLMISRTPEVTCVVVDVSHEDPEVQFNWYVDGVEVHNAKTKPREEQFNSTFRVVSVLTVVHQDWLNGKEYKCKVSNKGLPAPIEKTISKTKGQPREPQVYTLPPSREEMTKNQVSLTCLVKGFYPSDIAVEWESNGQPENNYKTTPPMLDSDGSFFLYSKLTVDKSRWQQGNVFSCSVMHEALHNHYTQKSLSLSPGK
light: DIQLTQSPSFLSASVGDRVTITCSVSSSISSSNLHWYQQKPGKAPKPWIYGTSNLASGVPSRFSGSGSGTEYTLTISSLQPEDAATYYCQQWSSYPLTFGQGTKLEIKRTVAAPSVFIFPPSDEQLKSGTASVVCLLNNFYPREAKVQWKVDNALQSGNSQESVTEQDSKDSTYSLSSTLTLSKADYEKHKVYACEVTHQGLSSPVTKSFNRGEC
notes: Human IgG2 Fc; also called humanized TAVO202 antibody 202H2/202L3 with human IgG2 Fc
EC50 (read off the curve) [4]: ~2 ng/mL

B5: TAVO6265 (antibody, human IgG2, kappa)
heavy: QVQLVQSGAEVKKPGSSVKVSCKASGYTFSSYWVNWVRQAPGQGLEWIGQIYPGDGDTDYAQKFQGRATLTADKSTSTAYMELSSLRSEDTAVYFCARGTYYNNYYGTDYWGQGTTVTVSSASTKGPSVFPLAPCSRSTSESTAALGCLVKDYFPEPVTVSWNSGALTSGVHTFPAVLQSSGLYSLSSVVTVPSSNFGTQTYTCNVDHKPSNTKVDKTVERKCCVECPPCPAPPVAGPSVFLFPPKPKDTLMISRTPEVTCVVVDVSHEDPEVQFNWYVDGVEVHNAKTKPREEQFNSTFRVVSVLTVVHQDWLNGKEYKCKVSNKGLPAPIEKTISKTKGQPREPQVYTLPPSREEMTKNQVSLTCLVKGFYPSDIAVEWESNGQPENNYKTTPPMLDSDGSFFLYSKLTVDKSRWQQGNVFSCSVMHEALHNHYTQKSLSLSPGK
light: EIVLTQSPDFQSVTPKEKVTITCSVSSSISSSNLHWYQQKPDQSPKPWIYGTSNLASGVPSRFSGSGSGTDYTLTINSLEAEDAATYYCQQWSSYPLTFGQGTKLEIKRTVAAPSVFIFPPSDEQLKSGTASVVCLLNNFYPREAKVQWKVDNALQSGNSQESVTEQDSKDSTYSLSSTLTLSKADYEKHKVYACEVTHQGLSSPVTKSFNRGEC
notes: Human IgG2 Fc; also called humanized TAVO202 antibody 202H2/202L4 with human IgG2 Fc
EC50 (read off the curve) [4]: ~2 ng/mL

B6: TAVO7264 (antibody, human IgG1, kappa)
heavy: QVQLVQSGAEVKKPGSSVKVSCKASGYTFSSYWVNWVRQAPGQGLEWIGQIYPGDGDTDYAQKFQGRATLTADKSTSTAYMELSSLRSEDTAVYFCARGTYYNNYYGTDYWGQGTTVTVSSASTKGPSVFPLAPSSKSTSGGTAALGCLVKDYFPEPVTVSWNSGALTSGVHTFPAVLQSSGLYSLSSVVTVPSSSLGTQTYICNVNHKPSNTKVDKKVEPKSCDKTHTCPPCPAPEFEGGPSVFLFPPKPKDTLMISRTPEVTCVVVAVSHEDPEVKFNWYVDGVEVHNAKTKPREEQYNSTYRVVSVLTVLHQDWLNGKEYKCKVSNKALPAPIEKTISKAKGQPREPQVYTLPPSREEMTKNQVSLTCLVKGFYPSDIAVEWESNGQPENNYKTTPPVLDSDGSFLLYSKLTVDKSRWQQGNVFSCSVMHEALHNHYTQKSLSLSPGK
light: DIQLTQSPSFLSASVGDRVTITCSVSSSISSSNLHWYQQKPGKAPKPWIYGTSNLASGVPSRFSGSGSGTEYTLTISSLQPEDAATYYCQQWSSYPLTFGQGTKLEIKRTVAAPSVFIFPPSDEQLKSGTASVVCLLNNFYPREAKVQWKVDNALQSGNSQESVTEQDSKDSTYSLSSTLTLSKADYEKHKVYACEVTHQGLSSPVTKSFNRGEC
notes: also called humanized TAVO202 antibody 202H2/202L3 with human IgG1 Fc (L234F, L235E, D265A, F405L)
binding result (Cynomolgus monkey TSLP): no binding (tested: 1 µg/mL)
